# Results published in patent US20160200782A1 (MOERAE MATRIX, published 2016).
# T1: Mer(h) (human, UniProt Q12866 578-872, limits assumed)
# T1 sequence (looked up): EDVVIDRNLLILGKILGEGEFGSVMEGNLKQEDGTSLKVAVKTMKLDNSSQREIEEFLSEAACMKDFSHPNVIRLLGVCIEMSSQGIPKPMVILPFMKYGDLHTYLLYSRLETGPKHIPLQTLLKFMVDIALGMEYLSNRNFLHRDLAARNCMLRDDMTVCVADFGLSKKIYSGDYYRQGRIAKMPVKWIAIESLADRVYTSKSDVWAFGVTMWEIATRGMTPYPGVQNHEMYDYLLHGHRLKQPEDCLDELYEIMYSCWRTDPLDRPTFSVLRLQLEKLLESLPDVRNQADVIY
# T2: MKK6(h) (human, UniProt P52564 1-334, limits assumed)
# T2 sequence (looked up): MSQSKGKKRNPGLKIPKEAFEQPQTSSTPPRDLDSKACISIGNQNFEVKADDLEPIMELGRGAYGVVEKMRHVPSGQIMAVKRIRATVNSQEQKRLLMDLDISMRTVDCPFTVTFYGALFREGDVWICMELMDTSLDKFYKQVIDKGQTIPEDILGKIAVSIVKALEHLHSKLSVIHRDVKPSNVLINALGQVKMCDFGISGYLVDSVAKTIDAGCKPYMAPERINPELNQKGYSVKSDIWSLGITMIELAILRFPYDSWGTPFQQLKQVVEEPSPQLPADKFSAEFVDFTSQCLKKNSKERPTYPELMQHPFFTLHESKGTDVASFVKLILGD
# T3: SAPK3(h) (human, UniProt P53778 1-367)
# T3 sequence (looked up): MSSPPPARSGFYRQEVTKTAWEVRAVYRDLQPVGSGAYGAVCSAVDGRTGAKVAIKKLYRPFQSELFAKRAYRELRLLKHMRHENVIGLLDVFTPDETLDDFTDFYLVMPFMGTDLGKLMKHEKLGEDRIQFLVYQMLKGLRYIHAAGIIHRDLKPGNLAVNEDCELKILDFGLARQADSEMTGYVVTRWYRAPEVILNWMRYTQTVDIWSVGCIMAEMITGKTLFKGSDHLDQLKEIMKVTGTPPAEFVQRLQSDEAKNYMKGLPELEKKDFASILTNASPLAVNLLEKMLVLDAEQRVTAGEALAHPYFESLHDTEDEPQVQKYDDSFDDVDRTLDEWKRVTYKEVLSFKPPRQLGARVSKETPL
# T4: EphA5(h) (human, UniProt P54756 595-1037, limits assumed)
# T4 sequence (looked up): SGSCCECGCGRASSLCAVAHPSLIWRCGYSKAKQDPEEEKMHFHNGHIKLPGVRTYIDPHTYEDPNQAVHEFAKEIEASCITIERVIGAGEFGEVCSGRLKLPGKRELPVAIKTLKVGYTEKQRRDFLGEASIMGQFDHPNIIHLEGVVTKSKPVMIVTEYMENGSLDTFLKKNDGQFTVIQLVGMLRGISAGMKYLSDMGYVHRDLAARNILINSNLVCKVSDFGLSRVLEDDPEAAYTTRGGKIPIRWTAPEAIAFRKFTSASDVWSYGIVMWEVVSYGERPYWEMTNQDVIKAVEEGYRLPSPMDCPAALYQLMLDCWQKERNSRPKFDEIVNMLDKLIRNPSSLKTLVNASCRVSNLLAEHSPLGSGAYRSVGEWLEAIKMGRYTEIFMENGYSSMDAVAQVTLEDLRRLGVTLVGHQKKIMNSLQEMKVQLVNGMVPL
# Experiments:
# Test in all cases: cell-based or functional assay
# Ab1(Y253F)(h) = Ab1(Y253F)(h) (human, UniProt P00519 27-1130, limits assumed)
# HIPK2(h) = HIPK2(h) (human, UniProt Q9H2X6 165-564, limits assumed)
# Chain of HIPK2(h) (Q9H2X6 165-564 limits assumed): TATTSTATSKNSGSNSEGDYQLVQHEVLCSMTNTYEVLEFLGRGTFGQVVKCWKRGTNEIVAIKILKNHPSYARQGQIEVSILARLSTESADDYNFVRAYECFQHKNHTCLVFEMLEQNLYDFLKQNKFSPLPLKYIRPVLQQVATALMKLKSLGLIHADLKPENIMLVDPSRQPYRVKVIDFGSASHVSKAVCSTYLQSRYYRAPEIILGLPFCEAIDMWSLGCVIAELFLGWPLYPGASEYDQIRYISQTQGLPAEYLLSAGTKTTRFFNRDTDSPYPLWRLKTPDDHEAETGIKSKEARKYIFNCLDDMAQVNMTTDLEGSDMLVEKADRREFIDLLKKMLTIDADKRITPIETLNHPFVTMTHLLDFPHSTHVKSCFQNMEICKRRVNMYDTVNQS
# IR(h), activated = IR(h), activated (human, UniProt P06213 1005-1310, limits assumed)
# Chain of IR(h), activated (P06213 1005-1310 limits assumed): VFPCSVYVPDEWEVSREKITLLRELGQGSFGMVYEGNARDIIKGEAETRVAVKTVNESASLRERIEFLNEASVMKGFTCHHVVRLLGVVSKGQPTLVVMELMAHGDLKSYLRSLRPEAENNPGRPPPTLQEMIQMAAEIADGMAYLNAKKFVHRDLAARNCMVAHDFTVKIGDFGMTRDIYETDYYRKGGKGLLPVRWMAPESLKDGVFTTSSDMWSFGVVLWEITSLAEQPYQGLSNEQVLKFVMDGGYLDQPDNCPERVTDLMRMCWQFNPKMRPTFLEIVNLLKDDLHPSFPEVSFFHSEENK
# IRAK1(h) = IRAK1(h) (human, UniProt P51617 194-712, limits assumed)
# Chain of IRAK1(h) (P51617 194-712 limits assumed): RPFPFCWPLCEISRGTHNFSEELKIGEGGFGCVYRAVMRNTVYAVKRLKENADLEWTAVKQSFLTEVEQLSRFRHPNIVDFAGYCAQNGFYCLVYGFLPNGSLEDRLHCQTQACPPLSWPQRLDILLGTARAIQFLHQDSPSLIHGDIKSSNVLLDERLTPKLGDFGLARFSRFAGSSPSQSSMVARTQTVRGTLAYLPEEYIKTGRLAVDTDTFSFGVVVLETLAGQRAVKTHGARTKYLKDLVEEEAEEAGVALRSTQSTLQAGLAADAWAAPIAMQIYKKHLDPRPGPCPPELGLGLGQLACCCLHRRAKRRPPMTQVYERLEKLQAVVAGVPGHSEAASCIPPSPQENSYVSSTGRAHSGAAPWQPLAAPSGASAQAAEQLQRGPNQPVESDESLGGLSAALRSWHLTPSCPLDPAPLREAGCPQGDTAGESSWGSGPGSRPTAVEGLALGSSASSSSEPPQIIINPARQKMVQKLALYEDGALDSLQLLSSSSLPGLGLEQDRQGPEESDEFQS
# LIMK1(h) = LIMK1(h) (human, UniProt P53667 285-638, limits assumed)
# Chain of LIMK1(h) (P53667 285-638 limits assumed): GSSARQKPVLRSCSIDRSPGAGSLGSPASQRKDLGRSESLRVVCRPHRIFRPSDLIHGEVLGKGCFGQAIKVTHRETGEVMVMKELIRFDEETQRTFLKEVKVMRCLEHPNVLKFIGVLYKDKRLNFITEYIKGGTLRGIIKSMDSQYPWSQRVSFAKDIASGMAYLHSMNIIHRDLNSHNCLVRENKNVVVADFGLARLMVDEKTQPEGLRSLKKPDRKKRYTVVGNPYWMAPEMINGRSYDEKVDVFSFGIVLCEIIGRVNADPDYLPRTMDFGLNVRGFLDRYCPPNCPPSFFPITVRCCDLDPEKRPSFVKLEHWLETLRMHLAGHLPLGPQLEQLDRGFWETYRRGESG
# MAPKAP-K3(h) = MAPKAP-K3(h) (human, UniProt Q16644 1-382, limits assumed)
# Chain of MAPKAP-K3(h) (Q16644 whole entry): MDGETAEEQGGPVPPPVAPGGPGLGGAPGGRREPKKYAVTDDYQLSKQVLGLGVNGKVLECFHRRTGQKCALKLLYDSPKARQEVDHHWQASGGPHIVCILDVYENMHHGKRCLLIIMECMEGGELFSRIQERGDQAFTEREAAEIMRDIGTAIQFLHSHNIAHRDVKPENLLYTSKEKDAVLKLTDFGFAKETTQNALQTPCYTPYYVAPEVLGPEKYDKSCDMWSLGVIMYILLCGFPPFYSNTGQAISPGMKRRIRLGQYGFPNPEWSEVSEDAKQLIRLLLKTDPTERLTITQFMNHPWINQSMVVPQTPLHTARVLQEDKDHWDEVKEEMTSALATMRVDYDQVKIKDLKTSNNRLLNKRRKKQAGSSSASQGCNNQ
# Mer(h) = target: T1, Mer(h)
# Met(D1246H)(h) = Met(D1246H)(h) (human, UniProt P08581-2 974-1408, limits assumed)
# MKK6(h) = target: T2, MKK6(h)
# MRCKα(h) = MRCKα(h) (human, UniProt Q5VT25 1-473, limits assumed)
# Chain of MRCKα(h) (Q5VT25 1-473 limits assumed): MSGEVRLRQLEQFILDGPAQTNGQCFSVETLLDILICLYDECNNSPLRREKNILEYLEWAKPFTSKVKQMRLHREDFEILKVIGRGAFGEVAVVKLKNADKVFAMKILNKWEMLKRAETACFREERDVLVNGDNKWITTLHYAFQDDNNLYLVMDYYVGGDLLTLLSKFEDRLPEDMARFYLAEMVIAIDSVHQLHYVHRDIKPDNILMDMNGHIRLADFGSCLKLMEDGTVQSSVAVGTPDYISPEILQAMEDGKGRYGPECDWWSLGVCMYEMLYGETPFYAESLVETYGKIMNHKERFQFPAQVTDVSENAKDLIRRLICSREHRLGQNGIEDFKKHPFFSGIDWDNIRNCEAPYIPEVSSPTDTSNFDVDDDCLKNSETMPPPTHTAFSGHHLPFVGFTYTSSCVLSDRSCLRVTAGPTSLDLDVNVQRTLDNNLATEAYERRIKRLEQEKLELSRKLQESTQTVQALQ
# PDGFRα(h) = PDGFRα(h) (human, UniProt P16234 550-1089, limits assumed)
# Chain of PDGFRα(h) (P16234 550-1089 limits assumed): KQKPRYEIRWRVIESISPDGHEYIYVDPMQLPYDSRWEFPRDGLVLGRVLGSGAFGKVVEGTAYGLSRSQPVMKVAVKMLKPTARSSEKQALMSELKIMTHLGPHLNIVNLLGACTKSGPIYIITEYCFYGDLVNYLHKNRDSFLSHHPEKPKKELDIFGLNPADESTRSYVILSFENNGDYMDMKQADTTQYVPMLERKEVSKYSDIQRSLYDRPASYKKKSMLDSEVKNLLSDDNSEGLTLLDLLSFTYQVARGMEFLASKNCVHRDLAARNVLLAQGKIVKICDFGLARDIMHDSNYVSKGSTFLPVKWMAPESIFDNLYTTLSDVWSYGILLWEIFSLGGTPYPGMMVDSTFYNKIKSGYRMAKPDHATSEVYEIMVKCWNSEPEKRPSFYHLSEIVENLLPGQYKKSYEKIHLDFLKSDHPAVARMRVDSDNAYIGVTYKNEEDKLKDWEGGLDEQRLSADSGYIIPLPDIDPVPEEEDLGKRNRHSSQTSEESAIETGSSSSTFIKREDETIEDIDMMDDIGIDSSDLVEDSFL
# SAPK2a(T106M)(h) = SAPK2a(T106M)(h) (human, UniProt Q16539 1-360)
# Chain of SAPK2a(T106M)(h) (Q16539 whole entry T106M): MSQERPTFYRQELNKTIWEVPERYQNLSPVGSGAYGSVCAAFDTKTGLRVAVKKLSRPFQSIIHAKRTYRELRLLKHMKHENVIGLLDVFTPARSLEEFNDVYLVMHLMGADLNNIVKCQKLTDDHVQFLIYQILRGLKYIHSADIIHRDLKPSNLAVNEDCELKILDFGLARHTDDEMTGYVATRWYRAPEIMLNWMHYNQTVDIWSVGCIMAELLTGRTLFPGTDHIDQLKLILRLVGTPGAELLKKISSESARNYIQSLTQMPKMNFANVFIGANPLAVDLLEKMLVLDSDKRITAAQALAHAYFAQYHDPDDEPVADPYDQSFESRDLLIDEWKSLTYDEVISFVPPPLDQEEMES
# SAPK2b(h) = SAPK2b(h) (human, UniProt Q15759 1-364)
# Chain of SAPK2b(h) (Q15759 whole entry): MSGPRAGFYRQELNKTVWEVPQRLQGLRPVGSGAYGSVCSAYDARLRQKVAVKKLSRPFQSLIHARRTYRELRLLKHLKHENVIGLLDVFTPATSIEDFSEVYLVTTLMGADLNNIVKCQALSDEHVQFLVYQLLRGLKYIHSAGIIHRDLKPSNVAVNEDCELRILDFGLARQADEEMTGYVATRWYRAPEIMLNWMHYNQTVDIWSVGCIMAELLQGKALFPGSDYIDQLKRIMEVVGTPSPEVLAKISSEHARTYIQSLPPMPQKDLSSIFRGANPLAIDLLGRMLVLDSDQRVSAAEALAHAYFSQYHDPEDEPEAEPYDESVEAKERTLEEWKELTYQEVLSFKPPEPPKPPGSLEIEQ
# SAPK3(h) = target: T3, SAPK3(h)
# BTK(R28H)(h) = BTK(R28H)(h) (human, UniProt Q06187 1-659)
# CaMKIIβ(h) = CaMKIIβ(h) (human, UniProt Q13554 1-666, limits assumed)
# cKit(D816V)(h) = cKit(D816V)(h) (human, UniProt P10721 544-976, limits assumed)
# Chain of cKit(D816V)(h) (P10721 544-976 D816V limits assumed): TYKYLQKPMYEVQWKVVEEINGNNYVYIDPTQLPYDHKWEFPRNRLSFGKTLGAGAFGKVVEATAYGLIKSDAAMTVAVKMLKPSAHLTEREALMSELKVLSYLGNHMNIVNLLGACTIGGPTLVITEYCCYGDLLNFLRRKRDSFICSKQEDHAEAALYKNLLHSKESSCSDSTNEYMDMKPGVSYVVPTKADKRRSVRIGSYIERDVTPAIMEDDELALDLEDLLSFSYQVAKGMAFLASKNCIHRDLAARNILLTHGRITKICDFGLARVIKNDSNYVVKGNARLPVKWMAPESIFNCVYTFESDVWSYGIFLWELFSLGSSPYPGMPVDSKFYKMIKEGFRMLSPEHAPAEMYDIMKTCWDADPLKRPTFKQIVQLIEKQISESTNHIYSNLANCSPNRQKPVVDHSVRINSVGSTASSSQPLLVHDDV
# EphA5(h) = target: T4, EphA5(h)
# ErbB4(h) = ErbB4(h) (human, UniProt Q15303 676-1308, limits assumed)
# Chain of ErbB4(h) (Q15303 676-1308 limits assumed): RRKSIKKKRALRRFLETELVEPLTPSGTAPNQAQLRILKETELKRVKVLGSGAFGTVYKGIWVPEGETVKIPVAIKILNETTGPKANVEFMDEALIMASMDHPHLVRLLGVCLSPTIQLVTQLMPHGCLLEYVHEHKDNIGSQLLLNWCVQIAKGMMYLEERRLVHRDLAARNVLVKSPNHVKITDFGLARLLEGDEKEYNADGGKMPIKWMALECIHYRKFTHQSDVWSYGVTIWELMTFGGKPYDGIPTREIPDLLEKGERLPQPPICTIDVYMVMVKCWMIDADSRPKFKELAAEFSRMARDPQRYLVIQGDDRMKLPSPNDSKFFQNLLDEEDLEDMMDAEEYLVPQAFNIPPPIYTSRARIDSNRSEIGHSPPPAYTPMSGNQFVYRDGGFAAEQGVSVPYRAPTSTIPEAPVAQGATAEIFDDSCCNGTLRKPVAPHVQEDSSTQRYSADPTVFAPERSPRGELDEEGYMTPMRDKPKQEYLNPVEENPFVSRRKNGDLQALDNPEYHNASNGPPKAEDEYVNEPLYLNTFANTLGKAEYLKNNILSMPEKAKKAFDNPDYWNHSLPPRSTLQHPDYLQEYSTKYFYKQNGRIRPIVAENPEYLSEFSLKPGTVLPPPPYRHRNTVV
# Note: test concentration or dose not given here.
% activity (Ab1(Y253F)(h)) [%],% activity (HIPK2(h)) [%],"% activity (IR(h), activated) [%]",% activity (IRAK1(h)) [%],% activity (LIMK1(h)) [%],% activity (MAPKAP-K3(h)) [%],% activity (Mer(h)) [%],% activity (Met(D1246H)(h)) [%],% activity (MKK6(h)) [%],% activity (MRCKα(h)) [%],% activity (PDGFRα(h)) [%],% activity (SAPK2a(T106M)(h)) [%],% activity (SAPK2b(h)) [%],% activity (SAPK3(h)) [%],% activity (BTK(R28H)(h)) [%],% activity (CaMKIIβ(h)) [%],% activity (cKit(D816V)(h)) [%],% activity (EphA5(h)) [%],% activity (ErbB4(h)) [%],Binder
78,90,59,93,92,7,50,68,44,97,40,99,82,79,24,11,35,24,0,KAFAKLAARLYRKALARQLGVAA [MMI-0400]
86,73,79,95,88,3,52,125,48,104,65,97,81,84,74,2,60,18,40,FAKLAARLYRKALARQLGVAA [MMI-0300]
